US20190282654A1 (OHIO STATE INNOVATION FOUNDATION, published 2019)
Square brackets hold non-standard residues; d marks the D form. Ends that are not written are not given here. 2Nal = N[C@@H](Cc1ccc2ccccc2c1)C(=O)O

Biological target: T1, GST-NEMO(1-196) (UniProt Q9Y6K9 1-196)
T1 construct: range 1-196; Expressed in E. coli from pGEX4T3-GST-NEMO(1-196) and purified on glutathione-Sepharose; Used with the GST tag in the HTRF assay (30 nM); also called Recombinant GST-NEMO; NF-κB essential modifier; not shown: glutathione S-transferase (GST) tag encoded by the pGEX4T3 vector
T1 sequence (Q9Y6K9 1-196): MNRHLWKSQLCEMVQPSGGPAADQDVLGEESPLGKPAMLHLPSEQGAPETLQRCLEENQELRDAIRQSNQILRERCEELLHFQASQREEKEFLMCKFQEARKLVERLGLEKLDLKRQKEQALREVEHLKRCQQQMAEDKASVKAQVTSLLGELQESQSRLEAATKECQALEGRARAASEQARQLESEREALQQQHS
Assay: HTRF competition, NEMO-IKK interaction (FIG. 6)
Procedure: The plate was incubated for 2 h at room temperature. […] The data was analyzed using GraphPad Prism 6.0 and IC₅₀ values were obtained by fitting the data to the dose-response inhibition curves.

Row | Binder | IC50 [nM]
1 | RRRR[2Nal]FCALDWSWLQC (cysteine pairing not given here) [RRRRΦFCALDWSWLQC] | 1400
2 | RRRR[2Nal]FTALDWSWLQT [RRRRΦFTALDWSWLQT] | 1600
